Numbered stars: 1 amine (or outer) side, 2 acyl side, 3 side chain; on linkers, the order of the positions; unused ones are H or OH. Square brackets hold non-standard residues; d marks the D form. Suc = O=C(CCC(=O)[*:2])[*:1]; NMeV = CN[C@H](C(=O)O)C(C)C; βAla = NCCC(=O)O
B1: Ant-6 (peptide)
peptide: Suc-DS[dW][NMeV][βAla]LM-NH2
SMILES: CSCC[C@H](NC(=O)[C@H](CC(C)C)NC(=O)CCNC(=O)[C@H](C(C)C)N(C)C(=O)[C@@H](Cc1c[nH]c2ccccc12)NC(=O)[C@H](CO)NC(=O)[C@H](CC(=O)O)NC(=O)CCC(=O)O)C(N)=O
B2: Ant-4 (peptide)
peptide: Suc-DI[dW][NMeV][βAla]LM-NH2
SMILES: CC[C@H](C)[C@H](NC(=O)[C@H](CC(=O)O)NC(=O)CCC(=O)O)C(=O)N[C@H](Cc1c[nH]c2ccccc12)C(=O)N(C)[C@H](C(=O)NCCC(=O)N[C@@H](CC(C)C)C(=O)N[C@@H](CCSC)C(N)=O)C(C)C
B3: Ant-2 (peptide)
peptide: Suc-DF[NMeV][βAla]LM-NH2
SMILES: CSCC[C@H](NC(=O)[C@H](CC(C)C)NC(=O)CCNC(=O)[C@H](C(C)C)N(C)C(=O)[C@H](Cc1ccccc1)NC(=O)[C@H](CC(=O)O)NC(=O)CCC(=O)O)C(N)=O
B4: Ant-3 (peptide)
peptide: Suc-DSF[NMeV][βAla]LM-NH2
SMILES: CSCC[C@H](NC(=O)[C@H](CC(C)C)NC(=O)CCNC(=O)[C@H](C(C)C)N(C)C(=O)[C@H](Cc1ccccc1)NC(=O)[C@H](CO)NC(=O)[C@H](CC(=O)O)NC(=O)CCC(=O)O)C(N)=O
B5: Ant-1 (peptide)
peptide: Suc-DIF[NMeV][βAla]LM-NH2
SMILES: CC[C@H](C)[C@H](NC(=O)[C@H](CC(=O)O)NC(=O)CCC(=O)O)C(=O)N[C@@H](Cc1ccccc1)C(=O)N(C)[C@H](C(=O)NCCC(=O)N[C@@H](CC(C)C)C(=O)N[C@@H](CCSC)C(N)=O)C(C)C
B6: Ant-5 (peptide)
peptide: Suc-D[dW][NMeV][βAla]LM-NH2
SMILES: CSCC[C@H](NC(=O)[C@H](CC(C)C)NC(=O)CCNC(=O)[C@H](C(C)C)N(C)C(=O)[C@@H](Cc1c[nH]c2ccccc12)NC(=O)[C@H](CC(=O)O)NC(=O)CCC(=O)O)C(N)=O

target: Salmon tac3 receptor (salmon); experiment: cell-based or functional assay

Question: Which “IC50 of inhibition of slNKB-induced SRE-Luciferase activity” value does the source give for B1 here?
Answer: The value was 870 nM.

Question: And the “reduction of the NKB-induced luciferase response (CRE-Luc)” value?
Answer: Its value is roughly 60%.

Question: How did the “reduction of the NKB-induced luciferase response (CRE-Luc)” value turn out when B2 was run?
Answer: The value was roughly 60%.

Question: Which “IC50 of inhibition of slNKB-induced SRE-Luciferase activity” value does the source give for B3 here?
Answer: Its value is 2600 nM.

Question: With B4 as the binder, how does the “IC50 of inhibition of slNKB-induced SRE-Luciferase activity” value read?
Answer: Its value is 6.16 nM.

target: Zebrafish tac3 receptor (zebrafish); experiment: cell-based or functional assay

Question: For B5, which “reduction of the NKB-induced response (CRE-Luc)” value is on record?
Answer: The value was roughly 60%.

Question: For B1, which “reduction of the NKB-induced response (CRE-Luc)” value is on record?
Answer: The value was roughly 60%.

Question: Which “reduction of the NKB-induced response (CRE-Luc)” value does the source give for B2 here?
Answer: Its value is roughly 60%.

Question: How did the “reduction of the NKB-induced response (CRE-Luc)” value turn out when B3 was run?
Answer: Its value is roughly 60%.

Question: For B6, which “reduction of the NKB-induced response (CRE-Luc)” value is on record?
Answer: The value was roughly 60%.

Question: With B4 as the binder, how does the “reduction of the NKB-induced response (CRE-Luc)” value read?
Answer: The value was roughly 60%.

target: Tilapia tac3 receptor (tilapia); experiment: cell-based or functional assay

Question: B5 was tested. Which “reduction of the NKB-induced luciferase response (CRE-Luc)” value did it give?
Answer: The value was roughly 60%.

Question: For B1, which “reduction of the NKB-induced luciferase response (CRE-Luc)” value is on record?
Answer: The value was roughly 60%.

Question: Which “reduction of the NKB-induced luciferase response (CRE-Luc)” value does the source give for B2 here?
Answer: Its value is roughly 60%.

Question: With B3 as the binder, how does the “reduction of the NKB-induced luciferase response (CRE-Luc)” value read?
Answer: The value was roughly 60%.

Question: B6 was tested. Which “reduction of the NKB-induced luciferase response (CRE-Luc)” value did it give?
Answer: The value was roughly 60%.

Question: How did the “reduction of the NKB-induced luciferase response (CRE-Luc)” value turn out when B4 was run?
Answer: The value was roughly 60%.

Source: patent US20190169256A1 (YISSUM RESEARCH DEVELOPMENT COMPANY OF THE HEBREW …, published 2019)
